Common to all, as to details: label: radiolabel, biotin or Alexa Fluor 647/680
Series [1] deals with T1, LAR protein (PTPRF, receptor-type protein tyrosine phosphatase F), endogenous on human cell lines (Homo sapiens, UniProt P10586 SEQ:30-1907). The experiment in a line: HEK293-KDR whole cells, Scatchard; Cmax 119 pM. How it is done: (§1) The binding curves were obtained for each cell type. From the specific binding, and using the Scatchard representation, the Kd and the Cmax were calculated for each cell type. Knowing the Cmax and the number of cells during the binding, the inventors were able to deduce therefrom an approximate number of targets per cell.
T1 sequence (P10586 30-1907): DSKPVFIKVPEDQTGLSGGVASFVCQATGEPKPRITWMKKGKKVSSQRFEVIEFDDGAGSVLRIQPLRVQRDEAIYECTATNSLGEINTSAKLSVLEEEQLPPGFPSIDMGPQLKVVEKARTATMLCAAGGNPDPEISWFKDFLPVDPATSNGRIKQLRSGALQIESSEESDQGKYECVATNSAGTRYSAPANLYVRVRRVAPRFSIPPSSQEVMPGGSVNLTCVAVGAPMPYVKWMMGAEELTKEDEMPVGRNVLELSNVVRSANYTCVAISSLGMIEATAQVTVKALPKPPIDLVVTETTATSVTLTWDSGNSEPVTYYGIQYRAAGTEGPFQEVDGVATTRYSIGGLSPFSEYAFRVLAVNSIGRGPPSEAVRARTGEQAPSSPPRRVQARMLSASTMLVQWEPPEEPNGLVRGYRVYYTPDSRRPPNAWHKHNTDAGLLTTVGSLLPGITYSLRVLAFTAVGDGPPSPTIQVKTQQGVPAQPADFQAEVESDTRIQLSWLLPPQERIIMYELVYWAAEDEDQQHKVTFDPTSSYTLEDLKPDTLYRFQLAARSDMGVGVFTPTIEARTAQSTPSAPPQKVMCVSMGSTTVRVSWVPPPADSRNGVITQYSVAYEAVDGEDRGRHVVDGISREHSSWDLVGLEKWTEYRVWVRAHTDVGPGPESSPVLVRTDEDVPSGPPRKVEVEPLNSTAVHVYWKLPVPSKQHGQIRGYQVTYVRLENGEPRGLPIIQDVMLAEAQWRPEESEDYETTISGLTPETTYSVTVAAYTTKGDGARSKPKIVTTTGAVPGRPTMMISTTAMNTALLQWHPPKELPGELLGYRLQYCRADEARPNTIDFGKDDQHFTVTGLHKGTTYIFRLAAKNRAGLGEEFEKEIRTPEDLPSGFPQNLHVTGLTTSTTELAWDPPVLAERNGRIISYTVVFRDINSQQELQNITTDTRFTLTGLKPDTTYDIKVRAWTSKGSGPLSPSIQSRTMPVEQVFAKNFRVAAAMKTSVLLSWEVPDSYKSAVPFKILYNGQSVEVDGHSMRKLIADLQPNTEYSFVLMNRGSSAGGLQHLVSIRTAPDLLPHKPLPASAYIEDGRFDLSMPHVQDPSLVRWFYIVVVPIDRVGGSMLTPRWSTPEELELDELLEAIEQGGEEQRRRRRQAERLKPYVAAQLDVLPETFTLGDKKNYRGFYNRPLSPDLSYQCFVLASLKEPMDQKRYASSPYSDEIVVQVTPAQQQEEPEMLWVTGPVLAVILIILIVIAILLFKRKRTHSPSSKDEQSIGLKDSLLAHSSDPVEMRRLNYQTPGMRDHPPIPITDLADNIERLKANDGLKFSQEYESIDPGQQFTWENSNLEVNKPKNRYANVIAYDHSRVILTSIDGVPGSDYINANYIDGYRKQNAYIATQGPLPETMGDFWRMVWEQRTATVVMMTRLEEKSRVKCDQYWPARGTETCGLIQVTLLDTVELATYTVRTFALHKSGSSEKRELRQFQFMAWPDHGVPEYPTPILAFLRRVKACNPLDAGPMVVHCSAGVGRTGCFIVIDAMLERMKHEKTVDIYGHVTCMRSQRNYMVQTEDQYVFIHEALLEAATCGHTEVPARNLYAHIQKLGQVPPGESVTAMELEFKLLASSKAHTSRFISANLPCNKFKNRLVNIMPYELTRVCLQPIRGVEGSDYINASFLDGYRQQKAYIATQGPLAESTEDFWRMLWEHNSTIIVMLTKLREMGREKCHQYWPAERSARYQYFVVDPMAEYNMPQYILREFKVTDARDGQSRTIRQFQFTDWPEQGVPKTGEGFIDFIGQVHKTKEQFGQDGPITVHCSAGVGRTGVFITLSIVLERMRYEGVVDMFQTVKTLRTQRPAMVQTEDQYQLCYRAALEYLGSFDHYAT

The target of series [2] is T1, LAR protein (PTPRF, receptor-type …). The experiment in a line: A-431 whole cells, Scatchard; Cmax 455 pM. How it is done:
as §1

Series [3] has the same target. The series is described as follows: MDA-MB-231 whole cells, Scatchard; Cmax 131 pM. How it is done:
as §1

Series [4] has the same target. The experiment in a line: HEK293 whole cells, Scatchard; Cmax 264 pM. The protocol: as §1
The target is the same in series [5]. The series is described as follows: MCF-7 whole cells, Scatchard analysis of radioligand-type cell binding; Cmax 251 pM. How it is done:
as §1

As usually defined, the Kd is the constant that tells how readily two partners part at equilibrium. Read a low Kd as higher affinity.

B1: V8 aptamer (ssRNA)
RNA: GGGAGAUGCUCUGUCAGACUACGACUGUCCCAGUAUGACGCGACUGCUUAGGUGGGAUGUUUCCCAUGCCUCGACUGGCUGGCAGGUUGAUGACAAG
modifications: 2'-F on all pyrimidines, 2'-OH purines
For the molecule B1, the Kd in series [1] was 5.3 nM; in series [2] it was 5.6 nM; in series [3] it was 3 nM; in series [4], 3.8 nM; in series [5], 1.6 nM.
